This is an account of results in US20240294593A1 (Genentech, published 2024).

Numbering of substitutions follows the chain as printed. In names and notes the source's numbering stands. Read-outs that look alike come from different tables or passages of the source.

Assay [1] concerns the target T1, human PD-1-His (human, UniProt Q15116 25-167, limits assumed).
T1 construct: Antigen of the Octet assays; not shown: His tag
The experiment in a line: Octet (BLI) sensorgram; XENP29708 loaded on the biosensor, analyte Sample ID XENP15593 at 300, 30, 3 nM [Cont.].

Assay [2] has as its target T1, human PD-1-His. The experiment in a line: Octet (BLI) sensorgram; XENP29713 loaded on the biosensor, analyte Sample ID XENP15593 at 300, 30, 3 nM [Cont.].
Assay [3] addresses T1, human PD-1-His. The experiment in a line: Octet (BLI) sensorgram; XENP29710 loaded on the biosensor, analyte Sample ID XENP15593 at 300, 30, 3 nM [Cont.].
Assay [4] addresses T1, human PD-1-His. The experiment in a line: Octet (BLI) sensorgram; XENP29714 loaded on the biosensor, analyte Sample ID XENP15593 at 300, 30, 3 nM [Cont.]. Background: BLI is a label-free optical method that tracks binding on a fibre tip over time.
The target of assay [5] is T1, human PD-1-His. Description: Octet (BLI) sensorgram; XENP29712 loaded on the biosensor, analyte Sample ID XENP15593 at 300, 30, 3 nM [Cont.].
Assay [6] has as its target T1, human PD-1-His. Description: Octet (BLI) sensorgram; XENP29711 loaded on the biosensor, analyte Sample ID XENP15593 at 300, 30, 3 nM [Cont.].
Assay [7] concerns the target T2, cynomolgus PD-1-His (cynomolgus monkey).
T2 chain: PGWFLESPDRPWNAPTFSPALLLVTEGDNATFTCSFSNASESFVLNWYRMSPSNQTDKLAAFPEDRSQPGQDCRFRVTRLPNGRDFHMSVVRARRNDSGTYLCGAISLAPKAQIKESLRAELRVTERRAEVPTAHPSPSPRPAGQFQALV
The experiment in a line: sensorgram, panel Cyno PD-1; Octet per legend paragraph 199, axes printed as Response (RU) against Time.

Assay [8] addresses T1, human PD-1-His. Description: sensorgram, panel Human PD-1; Octet per legend paragraph 199, axes printed as Response (RU) against Time (s).
Assay [9] deals with T2, cynomolgus PD-1-His. Description: sensorgram, panel Cyno PD-1; Octet per legend paragraph 199, axes printed as Response (RU) against Time.
In assay [10] the target is T1, human PD-1-His. Description: sensorgram, panel Human PD-1; Octet per legend paragraph 199, axes printed as Response (RU) against Time (s). The source holds these as a separate data set.

T1 sequence (Q15116 25-167 limits assumed): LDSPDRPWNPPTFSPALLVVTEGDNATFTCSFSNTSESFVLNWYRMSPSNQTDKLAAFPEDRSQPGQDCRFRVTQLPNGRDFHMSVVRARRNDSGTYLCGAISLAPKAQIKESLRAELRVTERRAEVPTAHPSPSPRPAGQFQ

B1: XENP29708 (W100Y) (antibody, V domains shown)
VH: EVQLVESGGGLVQPGGSLRLSCAASGFTFSSFGMHWVRQAPGKGLEWVSYISSGSSIIYYADSVKGRFTISRDNAKNSLYLQMNSLRAEDTAVYYCARGGRLVYSPDYWGQGTLVTVSS
VL: DIVMTQSPDSLAVSLGERATINCKSSQSLLNSGNQKNYLTWYQQKPGQPPKLLIYWASTRESGVPDRFTGSGSGTDFTLTISSLQAEDVAVYYCQNDYSYPFTFGSGTKLEIKR
notes: the panel label gives the substitution; also called mAb C[PD-1]_H1L1 W100Y (Kabat) variant; copies: 2 + 2
For the molecule B1, in assay [1], the binding result is “no binding (tested: 300 nM)”.

B2: XENP29713 (W100E) (antibody, V domains shown)
VH: B1 VH with Y104E
VL: B1 VL
notes: the panel label gives the substitution; also called mAb C[PD-1]_H1L1 W100E (Kabat) variant; copies: 2 + 2
For B2, the binding result in assay [2] is “no binding (tested: 300 nM)”.

B3: XENP29710 (W100H) (antibody, V domains shown)
VH: B1 VH with Y104H
VL: B1 VL
notes: the panel label gives the substitution; also called mAb C[PD-1]_H1L1 W100H (Kabat) variant; copies: 2 + 2
As for B3, the binding result in [3] is “no binding (tested: 300 nM)”.

B4: XENP29714 (W100R) (antibody, V domains shown)
VH: B1 VH with Y104R
VL: B1 VL
notes: the panel label gives the substitution; also called mAb C[PD-1]_H1L1 W100R (Kabat) variant; copies: 2 + 2
Take B4: in [4], the binding result is “no binding (tested: 300 nM)”.

B5: XENP29712 (W100S) (antibody, V domains shown)
VH: B1 VH with Y104S
VL: B1 VL
notes: the panel label gives the substitution; also called mAb C[PD-1]_H1L1 W100S (Kabat) variant; copies: 2 + 2
B5: the binding result in assay [5] is recorded as “no binding (tested: 300 nM)”.

B6: XENP29711 (W100Q) (antibody, V domains shown)
VH: B1 VH with Y104Q
VL: B1 VL
notes: the panel label gives the substitution; also called mAb C[PD-1]_H1L1 W100Q (Kabat) variant; copies: 2 + 2
As to B6, the binding result in assay [6] was “no binding (tested: 300 nM)”.

B7: XENP31986 (mAb C H1_L1.1 x IL-15[D30N/E64Q/N65D/N71Q/N79Q/N112Q] w/(G4A) Linker) (Fc fusion)
chain: ITCPPPMSVEHADIWVKSYSLYSRERYICNSGFKRKAGTSSLTECVLNKATNVAHWTTPSLKCIRGGGGAGGGGAGGGGAGGGGAGGGGANWVNVISDLKKIEDLIQSMHIDATLYTESNVHPSCKVTAMKCFLLELQVISLESGDASIHDTVQDLIILAQNSLSSNGQVTESGCKECEELEEKNIKEFLQSFVHIVQMFIQTSEPKSSDKTHTCPPCPAPPVAGPSVFLFPPKPKDTLMISRTPEVTCVVVDVKHEDPEVKFNWYVDGVEVHNAKTKPREEEYNSTYRVVSVLTVLHQDWLNGKEYKCKVSNKALPAPIEKTISKAKGQPREPQVYTLPPSREEMTKNQVSLTCDVSGFYPSDIAVEWESDGQPENNYKTTPPVLDSDGSFFLYSKLTVDKSRWEQGDVFSCSVLHEALHSHYTQKSLSLSPGK
heavy: EVQLVESGGGLVQPGGSLRLSCAASGFTFSSFGMHWVRQAPGKGLEWVSYISSGSSIIYYADSVKGRFTISRDNAKNSLYLQMNSLRAEDTAVYYCARGGRLVWSPDYWGQGTLVTVSSASTKGPSVFPLAPSSKSTSGGTAALGCLVKDYFPEPVTVSWNSGALTSGVHTFPAVLQSSGLYSLSSVVTVPSSSLGTQTYICNVNHKPSNTKVDKKVEPKSCDKTHTCPPCPAPPVAGPSVFLFPPKPKDTLMISRTPEVTCVVVDVKHEDPEVKFNWYVDGVEVHNAKTKPREEQYNSTYRVVSVLTVLHQDWLNGKEYKCKVSNKALPAPIEKTISKAKGQPREPQVYTLPPSREQMTKNQVKLTCLVKGFYPSDIAVEWESNGQPENNYKTTPPVLDSDGSFFLYSKLTVDKSRWQQGNVFSCSVLHEALHSHYTQKSLSLSPGK
light: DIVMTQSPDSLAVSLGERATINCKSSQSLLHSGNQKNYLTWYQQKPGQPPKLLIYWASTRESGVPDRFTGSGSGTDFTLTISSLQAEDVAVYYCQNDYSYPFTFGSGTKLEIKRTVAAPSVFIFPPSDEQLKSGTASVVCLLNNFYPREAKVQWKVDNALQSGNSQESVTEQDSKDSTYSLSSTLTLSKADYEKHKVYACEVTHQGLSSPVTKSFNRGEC
notes: scIL-15/Rα x Fab format
As for B7, the Kd (as a rule, the equilibrium constant for the complex coming apart) was found to be 4.5 nM in assay [7] and 4.3 nM in [8].

B8: XENP32435 (PD-1-targeted IL-15/Rα-Fc having Trp engineered/affinity repaired mAb C[PD1]_H1.176_L1.140 and IL-15[D30N/E64Q/N65D/N71Q/N79Q/N112Q]) (Fc fusion)
chain: B7 chain
heavy: B7 heavy with F32L, W104F
light: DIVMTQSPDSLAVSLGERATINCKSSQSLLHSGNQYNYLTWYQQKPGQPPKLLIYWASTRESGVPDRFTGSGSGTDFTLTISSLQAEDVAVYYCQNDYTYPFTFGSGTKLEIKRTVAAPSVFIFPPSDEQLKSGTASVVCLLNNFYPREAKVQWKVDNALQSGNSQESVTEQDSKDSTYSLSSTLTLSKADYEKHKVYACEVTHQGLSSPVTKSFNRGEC
Regarding B8, the Kd was determined as 2.7 nM in assay [9] and 2.8 nM in assay [10].
